One test has as its target T1, Human Sputum Elastase (Homo sapiens, UniProt P08246).
T1 construct: Human Sputum Elastase, product No. SE-563 EPC, Inc., Pacific, Mo; USA, Lot 85701; purchased EPC, Inc., Pacific, Mo; USA SE-563; host or cells: human sputum
T1 sequence (P08246 30-267): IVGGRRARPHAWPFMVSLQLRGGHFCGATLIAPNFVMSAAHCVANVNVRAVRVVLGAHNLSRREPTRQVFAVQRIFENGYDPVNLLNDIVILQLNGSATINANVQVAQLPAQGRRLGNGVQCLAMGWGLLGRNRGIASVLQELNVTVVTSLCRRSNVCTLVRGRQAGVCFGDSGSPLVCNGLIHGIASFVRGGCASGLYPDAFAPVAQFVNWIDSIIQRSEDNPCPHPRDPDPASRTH
The test can be described thus: Elastase assay (spectrophotometric, p-nitroanilide substrate). The class given is biochemical. How it is done: (§1) The inhibitory activity of the polypeptides of the present invention can be easily assayed using in vitro assays. In these types of spectrophotometric assays the activity of the serine protease is measured toward an appropriate p-nitroanilide substrate in the presence and absence of the peptide inhibitor. The enzyme catalyzed hydrolysis of the peptide p-nitroanilide substrate produces p-nitroanaline which results in an increase in absorbance which is monitored in the range of 405 to 410 nm. The rate of increase in absorbance is a measure of the enzymatic activity and the decrease in this rate relative to a suitable control is used to ascertain inhibition. The general assay procedure and details of the particular assays employed in the examples are provided in the Appendix following the examples. It is also possible to test the polypeptides in a functionally oriented assay that emulates in vivo conditions. Such an inhibition assay for elastase is also described in the Appendix.
(§2) Generalized Protocol Spectrophotometric Assays:
(§3) (1) Pipette 100 μl of enzyme solution into a disposable polystyrene cuvette (1 cm optical path length).
(§4) (2) Add (1900-X) μl of bufferto the cuvette, where X is the volume of test solution in microliters that is added in the next step.
(§5) Add X μl of test solution to the cuvette, where X ranges from 0 μl for the control to a maximum of about 500 μl. Incubate the solution for a period of 1 to 5 minutes at ambient temperature.
(§6) (4) Add 100 μl of substrate solution to the cuvette. Mix the contents by covering the cuvette with a piece of paraffin film and repeatedly inverting for a period of 5 to 15 seconds.
(§7) (5) Record the change in absorbance for about 5 minutes at either 405 or 410 nm, depending on the assay, with a spectrophotometer equipped with a suitable recording device.
(§8) The percent inhibition is calculated from the formula [formula] where (ΔA/min) is the initial rate of absorbance change.
(§9) (7) For more accurate quantitative determinations temperature control of the cuvette holders and the reagent solutions can be instituted.
(§10) (8) The test solution can be crude oxidized peptide prepared as described above, fractions from a chromatographic separation or purified polypeptides.
(A) Buffer Solution - Tris-NaCl buffer consisting of 0.1M Tris-HCl pH 7.5 at 25° C. containing 0.5M NaCl and 0.01% (w/v) NaNs.
(B) Substrate Solution - Dissolve 45.5 mg of N-succinyl-L-alanyl-L-alanyl-L-alanine p-nitroanilide in 1 ml of 1-methyl-2-pyrrolidinone. Add 32 ml of Tris-NaCl buffer.
(C) Enzyme Solution - Human Sputum Elastase, product No. SE-563 EPC, Inc., Pacific, Mo. USA, Lot 85701. Dissolve 1 mg in 1 ml of Tris-NaCl buffer. Store on ice or at 4° C.
(D) Test Solution - See general protocol, number 8.
Procedure: Use the above solutions in the general protocol described above.
(1) Buffer Solution - Tris-NaCl buffer -see Method 1.
(2) Substrate Solution - Dissolve 50 mg of 3-carbomethoxypropionyl-L-alanyl-L-alanyl-L-[…]-L-valine p-nitroanilidein 1 ml of 1-methyl-2-pyrrolidinone. Add 32 ml of Tris-NaCl buffer.
(3) Enzyme Solution - Human sputum elastase, product No. SE-563, EPC, inc. Pacific, Mo. USA, Lot 85071. Prepare a sample at a concentration of 0.01 mg per ml of Tris-NaCl buffer. Store on ice.
(4) Test Solution - general protocol, number 8.
Procedure: Use the above solutions in the general protocol.
(1) Porcine pancreatic elastase may be substituted for human elastase when it is desired to test for an inhibitor of the former.
(2) The activity of an elastase preparation can be calculated as [formula]
(3) The Tris-NaCl buffer also can be pH 8.0 with 0.03% sodium azide. Results should be compared at a single pH.

A further test has as its target bovine chymotrypsin (Bos taurus, UniProt P00766). The test can be described thus: Chymotrypsin assay (spectrophotometric, p-nitroanilide substrate). The conditions noted are these: inhibitor/protease ratio between about 10/1 and 50/1. It is filed as biochemical. How it is done:
as §1, §2, §3, §4, §5, §6, §7, §8, §9, §10
(A) Buffer solution - triethanolamine buffer- See trypsin assay.
(B) Substrate Solution - Dissolve 25 mg of 3-carbomethoxypropionyl-L-arginyl-L-prolyl-L-tyrosine p-nitroanilide (Product No. S-2586, KabiVitrum AB, Stockholm, Sweden) in 23.6 ml of water
(C) Enzyme solution - Dissolve 1 mg of bovine chymotrypsin in 4 ml of 0.001N HCl. Prepare the final dilution by combining 0.1 ml of the stock chymotrypsin solution and 10 ml of 0.001N HCl. Store on ice or at 4° C.
Procedure: Use the above solutions in the general protocol
(2) See note 1 of the cathepsin G assay.
(3) 0.1M Tris-HCl, pH 7.8, 20 mM CaCl2, 0.05% triton X-100 can be substituted for the triethanolamine buffer.

Consider “RVCPVILMKCKKDSDCLAECVCLEHGYCG (RVCPVILMKCKKDSDCLAECVCLEHGYCG) [Peptide 8]”, for which the “titration curve for elastase inhibition” value in the test with Human Sputum Elastase (FIG. 2) is reported as “essentially stochiometric inhibition”. Besides, in the test with Human Sputum Elastase (inhibitor/protease ratio between about 10/1 and 50/1), the “Inhibitory Activity Elastase” value is recorded as “++ (Represents greater than 50% inhibition)”. In addition, the “Inhibitory Activity Chymotrypsin” value with bovine chymotrypsin is recorded as “- (Represents less than 10% inhibition)”.

Source of the values: patent publication US4829052A, “Serine protease inhibitors” (Monsanto Company, priority 1987, dated 1989).
